Experimental data reported in patent US20140087995A1 (published 2014).
Numbered stars: 1 amine (or outer) side, 2 acyl side, 3 side chain; on linkers, the order of the positions; unused ones are H or OH. Bridge positions count the residues as written; N and C are the ends. Side chains are listed from the residue outwards. Ends that are not written are not given here. * marks the point of attachment. C20 diacid = O=C(O)CCCCCCCCCCCCCCCCCCC(=O)*; γGlu = O=C(O)[C@H](CCC(=O)[*:2])N[*:1]; AEEA = NCCOCCOCC(=O)O

T1: human calcitonin receptor (human, UniProt P30988 25-474)
T1 construct: whole, on cells; Assay used cell membranes of the transfected BHK cells; also called hCTR; hCT
T1 sequence (looked up): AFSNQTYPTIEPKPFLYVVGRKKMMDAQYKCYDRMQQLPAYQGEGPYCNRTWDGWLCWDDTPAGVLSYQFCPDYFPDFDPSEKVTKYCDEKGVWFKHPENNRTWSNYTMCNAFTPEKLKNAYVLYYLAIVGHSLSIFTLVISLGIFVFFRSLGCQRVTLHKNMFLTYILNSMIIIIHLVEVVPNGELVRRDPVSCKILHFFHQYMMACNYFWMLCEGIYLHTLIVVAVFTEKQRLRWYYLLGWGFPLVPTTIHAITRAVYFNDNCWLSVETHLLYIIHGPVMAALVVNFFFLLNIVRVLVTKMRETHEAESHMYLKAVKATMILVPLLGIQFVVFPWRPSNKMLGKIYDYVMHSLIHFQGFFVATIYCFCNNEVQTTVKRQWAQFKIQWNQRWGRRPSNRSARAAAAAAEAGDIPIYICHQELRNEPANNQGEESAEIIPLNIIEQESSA

B1: N^ε-[(4S)-4-carboxy-4-(19-carboxynonadecanoylamino)butanoyl]Lys[Arg1,Arg17,Pro21,Pro27,His35]-h-amylin (peptide)
peptide: K([γGlu-C20 diacid])RCNTATCATQRLANFLRHSSPNFGAIPSSTNVGSHTY-NH2
modifications: disulfide 3-8; N-terminus assumed
SMILES: CC[C@H](C)[C@H](NC(=O)[C@H](C)NC(=O)CNC(=O)[C@H](Cc1ccccc1)NC(=O)[C@H](CC(N)=O)NC(=O)[C@@H]1CCCN1C(=O)[C@H](CO)NC(=O)[C@H](CO)NC(=O)[C@H](Cc1c[nH]cn1)NC(=O)[C@H](CCCNC(=N)N)NC(=O)[C@H](CC(C)C)NC(=O)[C@H](Cc1ccccc1)NC(=O)[C@H](CC(N)=O)NC(=O)[C@H](C)NC(=O)[C@H](CC(C)C)NC(=O)[C@H](CCCNC(=N)N)NC(=O)[C@H](CCC(N)=O)NC(=O)[C@@H](NC(=O)[C@H](C)NC(=O)[C@@H]1CSSC[C@H](NC(=O)[C@H](CCCNC(=N)N)NC(=O)[C@@H](N)CCCCNC(=O)CC[C@H](NC(=O)CCCCCCCCCCCCCCCCCCC(=O)O)C(=O)O)C(=O)N[C@@H](CC(N)=O)C(=O)N[C@@H]([C@@H](C)O)C(=O)N[C@@H](C)C(=O)N[C@@H]([C@@H](C)O)C(=O)N1)[C@@H](C)O)C(=O)N1CCC[C@H]1C(=O)N[C@@H](CO)C(=O)N[C@@H](CO)C(=O)N[C@H](C(=O)N[C@@H](CC(N)=O)C(=O)N[C@H](C(=O)NCC(=O)N[C@@H](CO)C(=O)N[C@@H](Cc1c[nH]cn1)C(=O)N[C@H](C(=O)N[C@@H](Cc1ccc(O)cc1)C(N)=O)[C@@H](C)O)C(C)C)[C@@H](C)O
notes: Synthetic analogue, extended by Lys at the N-terminus; also called compound 44
B2: N^-1-[(4S)-4-carboxy-4-(19-carboxynonadecanoylamino)butanoyl]-Gly[Arg1,Arg17,Pro21,Pro27,His35]-h-amylin (peptide)
peptide: {C20 diacid-γGlu}-GRCNTATCATQRLANFLRHSSPNFGAIPSSTNVGSHTY-NH2
modifications: disulfide 3-8
SMILES: CC[C@H](C)[C@H](NC(=O)[C@H](C)NC(=O)CNC(=O)[C@H](Cc1ccccc1)NC(=O)[C@H](CC(N)=O)NC(=O)[C@@H]1CCCN1C(=O)[C@H](CO)NC(=O)[C@H](CO)NC(=O)[C@H](Cc1c[nH]cn1)NC(=O)[C@H](CCCNC(=N)N)NC(=O)[C@H](CC(C)C)NC(=O)[C@H](Cc1ccccc1)NC(=O)[C@H](CC(N)=O)NC(=O)[C@H](C)NC(=O)[C@H](CC(C)C)NC(=O)[C@H](CCCNC(=N)N)NC(=O)[C@H](CCC(N)=O)NC(=O)[C@@H](NC(=O)[C@H](C)NC(=O)[C@@H]1CSSC[C@H](NC(=O)[C@H](CCCNC(=N)N)NC(=O)CNC(=O)CC[C@H](NC(=O)CCCCCCCCCCCCCCCCCCC(=O)O)C(=O)O)C(=O)N[C@@H](CC(N)=O)C(=O)N[C@@H]([C@@H](C)O)C(=O)N[C@@H](C)C(=O)N[C@@H]([C@@H](C)O)C(=O)N1)[C@@H](C)O)C(=O)N1CCC[C@H]1C(=O)N[C@@H](CO)C(=O)N[C@@H](CO)C(=O)N[C@H](C(=O)N[C@@H](CC(N)=O)C(=O)N[C@H](C(=O)NCC(=O)N[C@@H](CO)C(=O)N[C@@H](Cc1c[nH]cn1)C(=O)N[C@H](C(=O)N[C@@H](Cc1ccc(O)cc1)C(N)=O)[C@@H](C)O)C(C)C)[C@@H](C)O
notes: Synthetic analogue, extended by Gly at the N-terminus; also called compound 47
B3: N^-1-[(4S)-4-carboxy-4-(19-carboxynonadecanoylamino)butanoyl]-Gly[Arg1,Arg17,Pro21,Pro27]-h-amylin (peptide)
peptide: {C20 diacid-γGlu}-GRCNTATCATQRLANFLRHSSPNFGAIPSSTNVGSNTY-NH2
modifications: disulfide 3-8
SMILES: CC[C@H](C)[C@H](NC(=O)[C@H](C)NC(=O)CNC(=O)[C@H](Cc1ccccc1)NC(=O)[C@H](CC(N)=O)NC(=O)[C@@H]1CCCN1C(=O)[C@H](CO)NC(=O)[C@H](CO)NC(=O)[C@H](Cc1c[nH]cn1)NC(=O)[C@H](CCCNC(=N)N)NC(=O)[C@H](CC(C)C)NC(=O)[C@H](Cc1ccccc1)NC(=O)[C@H](CC(N)=O)NC(=O)[C@H](C)NC(=O)[C@H](CC(C)C)NC(=O)[C@H](CCCNC(=N)N)NC(=O)[C@H](CCC(N)=O)NC(=O)[C@@H](NC(=O)[C@H](C)NC(=O)[C@@H]1CSSC[C@H](NC(=O)[C@H](CCCNC(=N)N)NC(=O)CNC(=O)CC[C@H](NC(=O)CCCCCCCCCCCCCCCCCCC(=O)O)C(=O)O)C(=O)N[C@@H](CC(N)=O)C(=O)N[C@@H]([C@@H](C)O)C(=O)N[C@@H](C)C(=O)N[C@@H]([C@@H](C)O)C(=O)N1)[C@@H](C)O)C(=O)N1CCC[C@H]1C(=O)N[C@@H](CO)C(=O)N[C@@H](CO)C(=O)N[C@H](C(=O)N[C@@H](CC(N)=O)C(=O)N[C@H](C(=O)NCC(=O)N[C@@H](CO)C(=O)N[C@@H](CC(N)=O)C(=O)N[C@H](C(=O)N[C@@H](Cc1ccc(O)cc1)C(N)=O)[C@@H](C)O)C(C)C)[C@@H](C)O
notes: Synthetic analogue, extended by Gly at the N-terminus; also called compound 46
B4: N^ε-[2-[2-[2-[[(4S)-4-carboxy-4-(19-carboxynonadecanoylamino)butanoyl]amino]ethoxy]ethoxy]acetyl]Lys[Arg1,Arg17,Pro21,Pro27,His35]-h-amylin (peptide)
peptide: K([AEEA-γGlu-C20 diacid])RCNTATCATQRLANFLRHSSPNFGAIPSSTNVGSHTY-NH2
modifications: disulfide 3-8; N-terminus assumed
SMILES: CC[C@H](C)[C@H](NC(=O)[C@H](C)NC(=O)CNC(=O)[C@H](Cc1ccccc1)NC(=O)[C@H](CC(N)=O)NC(=O)[C@@H]1CCCN1C(=O)[C@H](CO)NC(=O)[C@H](CO)NC(=O)[C@H](Cc1c[nH]cn1)NC(=O)[C@H](CCCNC(=N)N)NC(=O)[C@H](CC(C)C)NC(=O)[C@H](Cc1ccccc1)NC(=O)[C@H](CC(N)=O)NC(=O)[C@H](C)NC(=O)[C@H](CC(C)C)NC(=O)[C@H](CCCNC(=N)N)NC(=O)[C@H](CCC(N)=O)NC(=O)[C@@H](NC(=O)[C@H](C)NC(=O)[C@@H]1CSSC[C@H](NC(=O)[C@H](CCCNC(=N)N)NC(=O)[C@@H](N)CCCCNC(=O)COCCOCCNC(=O)CC[C@H](NC(=O)CCCCCCCCCCCCCCCCCCC(=O)O)C(=O)O)C(=O)N[C@@H](CC(N)=O)C(=O)N[C@@H]([C@@H](C)O)C(=O)N[C@@H](C)C(=O)N[C@@H]([C@@H](C)O)C(=O)N1)[C@@H](C)O)C(=O)N1CCC[C@H]1C(=O)N[C@@H](CO)C(=O)N[C@@H](CO)C(=O)N[C@H](C(=O)N[C@@H](CC(N)=O)C(=O)N[C@H](C(=O)NCC(=O)N[C@@H](CO)C(=O)N[C@@H](Cc1c[nH]cn1)C(=O)N[C@H](C(=O)N[C@@H](Cc1ccc(O)cc1)C(N)=O)[C@@H](C)O)C(C)C)[C@@H](C)O
notes: Synthetic analogue, extended by Lys at the N-terminus; also called compound 45
B5: N^ε1-[(4S)-4-carboxy-4-(19-carboxynonadecanoylamino)butanoyl]-[Arg17,Pro21,Pro27]-h-amylin (peptide)
peptide: K([γGlu-C20 diacid])CNTATCATQRLANFLRHSSPNFGAIPSSTNVGSNTY-NH2
modifications: disulfide 2-7; N-terminus assumed
SMILES: CC[C@H](C)[C@H](NC(=O)[C@H](C)NC(=O)CNC(=O)[C@H](Cc1ccccc1)NC(=O)[C@H](CC(N)=O)NC(=O)[C@@H]1CCCN1C(=O)[C@H](CO)NC(=O)[C@H](CO)NC(=O)[C@H](Cc1c[nH]cn1)NC(=O)[C@H](CCCNC(=N)N)NC(=O)[C@H](CC(C)C)NC(=O)[C@H](Cc1ccccc1)NC(=O)[C@H](CC(N)=O)NC(=O)[C@H](C)NC(=O)[C@H](CC(C)C)NC(=O)[C@H](CCCNC(=N)N)NC(=O)[C@H](CCC(N)=O)NC(=O)[C@@H](NC(=O)[C@H](C)NC(=O)[C@@H]1CSSC[C@H](NC(=O)[C@@H](N)CCCCNC(=O)CC[C@H](NC(=O)CCCCCCCCCCCCCCCCCCC(=O)O)C(=O)O)C(=O)N[C@@H](CC(N)=O)C(=O)N[C@@H]([C@@H](C)O)C(=O)N[C@@H](C)C(=O)N[C@@H]([C@@H](C)O)C(=O)N1)[C@@H](C)O)C(=O)N1CCC[C@H]1C(=O)N[C@@H](CO)C(=O)N[C@@H](CO)C(=O)N[C@H](C(=O)N[C@@H](CC(N)=O)C(=O)N[C@H](C(=O)NCC(=O)N[C@@H](CO)C(=O)N[C@@H](CC(N)=O)C(=O)N[C@H](C(=O)N[C@@H](Cc1ccc(O)cc1)C(N)=O)[C@@H](C)O)C(C)C)[C@@H](C)O
notes: Synthetic analogue; also called compound 48

biological target: T1, human calcitonin receptor; experiment: ratio IC50 hCTR / IC50 hAmylin-R of the two SPA competition assays; reference: human amylin receptor
Procedure, shortened: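 Scintillation proximity competition binding on cell membranes at 35 ng/μL with SPA beads, in 50 mM Hepes pH 7.4, 1 mM CaCl2, 5 mM MgCl₂, 0.1% OA, 0.02% Tween20. Incubated 120 min at 25° C with shaking. IC₅₀ from one-site competition fit.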

| Ratio hCT/hAmylin binding | Binder |
| --- | --- |
| 17.7 | B1 |
| 44.9 | B2 |
| 48.9 | B3 |
| 26.8 | B4 |
| 69.7 | B5 |

biological target: T1, human calcitonin receptor; experiment: SPA radioligand competition (125I-calcitonin), membranes of BHK cells with human calcitonin receptor
Procedure, shortened: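 BHK hCTR membranes 35 ng/μL + SPA beads 0.05 mg/well; buffer 50 mM Hepes pH 7.4, 1 mM CaCl2, 5 mM MgCl₂, 0.1% OA, 0.02% Tween20. 120 min, 25° C., shaking. Scintillation count; IC50 by one-site binding competition.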

| IC50 [nM] | Binder |
| --- | --- |
| 4.87 | B1 |
| 15.5 | B2 |
| 9.53 | B3 |
| 14.8 | B4 |
| 30.9 | B5 |
